# Assay: yeast display, Sf9 membrane polyspecificity reagent, FACS + sequencing; frameworks hold sequencing errors
# In short: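 Sorting gates, low and high (top ~1%), were placed on anti-HA fluorescence to track expression and on streptavidin fluorescence to track reagent binding. A clone's polyreactivity label is taken from the gate it came out of. The reagent was 10% biotinylated, detergent-solubilized Sf9 membrane, applied for 1 hour at 4 °C to galactose-induced yeast display cells.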
row,Sequence,polyreactivity (PSR sort gate)
1,QVQLVESGGGLVQAGGSLRISCAASGSIFWDNVMGWYRQAPGKERELVADIDSWDGGSTYYADSVKGRFTISRDNAKNTVYLQMNSLKPEDTAVYYCNTDVLWWRGGDDYWGQGTQVTVSS,low polyreactivity
2,QVQLVESGGGLVQAGGSLRISCAASGSIFWRYVMGWYRPAPGKERELIAAISSGGGITYYADSVKGRFTISRDNAKNTVYLQMNSLKPEDTAVYYCAARTYRGQYYTGFGFGYWGQGSQVTVSS,high polyreactivity
3,QVQLVESGGGLVQAGGSLRISCAASGSLFYRYAMGWYRQAPGKEREMVAAINDSGGGTYYADSVKGRFTISRDKAKNTVYLQMNSLKPEDTAVYYCAAATHNKHTARDDYWGQGTQVNVSS,low polyreactivity
4,QVQLVESGGGLVQAGGSLRISCAASGSNSNANAMGWYRQAPGKQREFVADISRSRGRTYYADSVKGRFTISRDNAKYTVYLQMNSLKPEVTAVYYCAAGGFGAGNNYWGQGTQVTVSS,high polyreactivity
5,QVQLVESGGGLVQAGGSLRISCAASGSTFDGNAMGWYRQAPGKERELVAAISDGDSTTNADSVKGRFTISRDNAKNTVYLQMNSLKPEDTAVYYCAARSPGDQRLGRHYYGEFDYWGQGTQVTVSS,low polyreactivity
6,QVQLVESGGGLVQAGGSLRISCAASGSTFLYNNMGWYRQAPGKERELVAAITWSGGNTYYADSVKGRFTISRDNAKNTVYLQMNSLKPEDTAVYYCNAVWYPPKRKCFDYWGQGTQVTVSS,low polyreactivity
7,QVQLVESGGGLVQAGGSLRISCAASGSTFRRYPIGWYRQAPGKEREFVAVITSSGVITYYADSVKGRFTISRDNAKNTVYLQMNSLKPEDTAVYYCATDARSMDYWGQGTQVTVSS,low polyreactivity
8,QVQLVESGGGLVQAGGSLRISCAASGSTFVPNTMGWYRQAPGKERELVAAITYSGGSTYYADSVKGRFTISRDYAKNTVYLLMNSLKPEDTEVYYCAAEGTTWYYDMDYWGQGTQVTVSS,low polyreactivity
9,QVQLVESGGGLVQAGGSLRISCAASGSTFWYYAMGWYRQAPGKERELVAAINSDDSTNYADSVKGRFTISRDNAKNTVYLQMNSLKPEDTAVYYCNRGFVYSTTGLWRYYDFDYWGQGTQVTVSS,low polyreactivity
10,QVQLVESGGGLVQAGGSLRISCAASGSTFWYYAMGWYRQAPGKERELVAVINSGGITNYADSVKGRFTISRDNAKNTVYLQMNSLKPEDTAVYYCNKRLYWGYGEMDYWGQGTQVTVSS,low polyreactivity
11,QVQLVESGGGLVQAGGSLRISCAASGSTFYRNAMGWYRQAPGKERELVARISSRGGRTSYADSVKGRFTISRDNAKNNVYFQMNSLKPEDTAVYYCAADYYVNRIQRYDYWGQGTQVTVSS,high polyreactivity
12,QVQLVESGGGLVQAGGSLRISCAASGSTFYVNAMGWYRQAPGKERELVAAIDGGDTYYADSVKGRFTISRDNAKNTVYLQMNSLKPEDTAVYYCAAESLPEISVGLGYWGQGTQVTVSS,low polyreactivity
13,QVQLVESGGGLVQAGGSLRISCAASGTFGSNAMGWYRQAPGKERELVAAINSGGTTKYADSVKGRFTISRDNAKNTVYLQMNSLKPEDTAVYYCNAREGVFRYPVAHDYWGQGTQVTVSS,low polyreactivity
14,QVQLVESGGGLVQAGGSLRISCAPSGITFKDYAMGWYRQAPGKERELVAVISYSGGSTYYADTVKGRFTISRDNAKNTVYLQMNSLKPEDTAVYYCAARVGPEYDWGQGTQVTVSS,low polyreactivity
15,QVQLVESGGGLVQAGGSLRISCAPSGRTFGINAMGWYRQAPGKERELVAVISFGDGGTYYADSVKGRFTISRDNAKNTVYLQMNSLKPEDTAVYYCATDYQSTSVWGGHFVINPYDYWGQGTQVTVSS,low polyreactivity
16,QVQLVESGGGLVQAGGSLRISCAPSGSTFYTNAMGWYRQAPGKEREFVAAISWSGSSTYADSVKGRFTISRDNAKNTVYLQMNSLKPEDTAVYYFAADWFKLRTDYYWGQGTQVTVSS,low polyreactivity
17,QVQLVESGGGLVQAGGSLRISCASSGFTIWGYTMVWYRQAPGKERELVAAITSTGSTYYADSVKGRFTISRDNAKNTVYLQMNSLKPEDTAVYYCAAESYYGYDYWGQGTQVTVSS,low polyreactivity
18,QVQLVESGGGLVQAGGSLRISCSASGSIFTGYAMGWYRPAPGKERELVAAISNSGTSTYYADSVKGRFTISRDNANNTVYLQMNSLKPEDTAVYYCNTVGHRWLSDDDYWGQGTQVTVSS,low polyreactivity
19,QVQLVESGGGLVQAGGSLRISCVASARTFYRYAMGWYRQAPGKERELVAVITRGGSTYYADSVKGRFTISRDNAKNPVYLQMNSLKPEDTAVYFCNADGRVQRKYDYWGQGTQVTVSS,high polyreactivity
20,QVQLVESGGGLVQAGGSLRISFAASGFFFARYAMGWYRQEPGKERELVAAISGSGARTYYADSVKGRFTNSRDNAKNTVYLQMNSLKPEDTAVYYCAVRGSWYSEHNYWGQGTQVTVSS,high polyreactivity
21,QVQLVESGGGLVQAGGSLRISSAASALIIYDNMGRYRQAPGKERELVAAISSSGGSTSYADSVKGRFTFSRDNANNTVYLQMNSLKPEDTAVYYSAADSYPAYLGFVGFDYWGQGTQVTVSS,low polyreactivity
22,QVQLVESGGGLVQAGGSLRISSAASGPTFVPNAMGSYRQAPGKERELVATITSGGNTYYADSVKGRFTISRDNAKNTVYLQMNSLKPEDTAVYYCNRDWIYWGPRRNSGEYWGQGTQVTVSS,low polyreactivity

row,Sequence,polyreactivity (PSR sort gate)
1,QVQLVESGGGLVQAGGSLRLCCAACGRIFYAYAMGWYRQAPGKERELVAAISSSGGRTYYADSVKGRFTISRDNAKNTVYLQMNSLKPEDTAVYYSAAVHYYKFEWGQRTQVTVSS,high polyreactivity
2,QVQLVESGGGLVQAGGSLRLCCAASGSTFYFYTMGWYRQAPGKERELVAAIRDSGSSTDYADSVKGRFTISRDNAKNTVYLQMNSLKPEATAVYYCAAEYNFPEFPWGGEYDYWGQGTQVTVSS,low polyreactivity
3,QVQLVESGGGLVQAGGSLRLCCAAYGRTFRGNAMRLYTQAPGKERELVAVITSGDSTYYADSVKGRFTNSRDNAKNTVYLQMNSLKPEDTAVYYCAAYLWKSKRKLDYWGQGTQVTVTS,high polyreactivity
4,QVQLVESGGGLVQAGGSLRLGCAASGFTLWYYNIGWYRQAPGKERELVASISWSGGSTYYADSVKGRFTISRDNAKNTVYLQMNSLKPEDTALYYCNVQSYDRIYDYWGQGTQVTVSS,high polyreactivity
5,QVQLVESGGGLVQAGGSLRLICAASAFNFRYYVMGWYRQAPGKERELVAVISYSGGSTYYADSVKGRFTISRDNAKNTVYLQRNSMKPEDTAVYYCDARYYVATSSIYYYWGQGTQVTVSS,high polyreactivity
6,QVQLVESGGGLVQAGGSLRLICAASAFTIRRYAMGWYRQARGKERELVAAINWNGDTTYYADSVKGRFTISSDNAKNTVYLQMNSLKPEDTAVYYCATSDYYYDYWGQGTQVTVSS,high polyreactivity
7,QVQLVESGGGLVQAGGSLRLICAASGFIFASYAMGWYRQSPGKEREFVAAITRRGGTTYYADSVNGRFTISRDNAKNTVYLQMNSLKPEDTAVYYCATAHSRPGYVFDYWGQGTQVTVSS,high polyreactivity
8,QVQLVESGGGLVQAGGSLRLICAASGFIFAWYAMGWYRQAPGKERELVAAITSGGRTYYADSVKGRFTISRDNAKNTVYLQMNSMKPEDTAVYYCATDAVDSHRPYKYGPQSGSWGQGTQVTVSS,high polyreactivity
9,QVQLVESGGGLVQAGGSLRLICAASGFIFGAYTMGWYRQAPGKERELVADISRRGGTTYYADSVKGRFTISRDNAKNTVYLQMISLKPEDTAVYYCAKVANFWYITTLRGYYYWGQGTQVTVSS,high polyreactivity
10,QVQLVESGGGLVQAGGSLRLICAASGFIFRVYAMGWYRQAPGKERALVATITYDGGRTYYADSVKGRFTISRDNAKNTVYLQMNSLKPEDTAVFGYWGQGTQVTVSS,low polyreactivity
11,QVQLVESGGGLVQAGGSLRLICAASGFIFYGNAMGWYRQAPGKERELVAAISSSGGSTYYADSVKGRFTISRDNAKNTVYLQMNSLKPEDTAVYYCNKYYLVKGPYDWGQGTQVTVSS,high polyreactivity
12,QVQLVESGGGLVQAGGSLRLICAASGFIITGNAMGWYRQAPGKERELVAAITSGGNTYYADSVKGRFTISRDNAKNTVYLQMISMKPEDTAVYYCAKYGPHWRILMEYWGQGTQVTVSS,low polyreactivity
13,QVQLVESGGGLVQAGGSLRLICAASGFTFDENAMGWYRQAPGINYSGASTYYADSVKGRFTISRDNAKNTVYLQMISLKPEDTAVYYCAADYETGAVSILDDYWGQGTQVTVSS,low polyreactivity
14,QVQLVESGGGLVQAGGSLRLICAASGFTFGEYAMGWYRKAPGKERELVAGISWSGGGTYYADSVKGRFTISRDTAKNTVYLQMNCLKPEDTAVYYCAKAGYYFFQQWQVDYWGQGTQVTVSS,low polyreactivity
15,QVQLVESGGGLVQAGGSLRLICAASGFTFGGYAMGWYRPAPVKERELVAAINGNGGRTYSADSVKGRFTISRDKAKNTVYLQMISLKPEDTAVYYCYAAYRQHYRYYYWGQGTQVTVSS,high polyreactivity
16,QVQLVESGGGLVQAGGSLRLICAASGFTFPPYAMGGYRQAPGKERELVAAITSSGGRTYYAYSVKGRFTISRDNAKNTVYLQMNSLKPEDTAFYYCAAYGRFARMNYWGQGTQVTVSS,high polyreactivity
17,QVQLVESGGGLVQAGGSLRLICAASGFTFPVYARGWYRQAPGKERELVAAISSSGGTTYYADSVKGRFTISRDNAKNTVYLQMISLKPEDTAVYYCNAYYGSTAYGYDYWGQGTQVTVSS,low polyreactivity
18,QVQLVESGGGLVQAGGSLRLICAASGFTFRYYAMGWYRQAPGTERELVAAISAGGGSTYYADSVKGRFTISRDNAKNTVYLQMNSLKPEETAVYYCAAAGARPGYDYWGQGTLVTVSS,high polyreactivity
19,QVQLVESGGGLVQAGGSLRLICAASGFTFSTNAMGWYRQAPGKERELVAAITKSGGRTYYADSVKGRFTISRDNAKNTVYLQMNSLTPEDTAVYYCAAEVDRKGFYWYYWGQGTQVTVSS,high polyreactivity
20,QVQLVESGGGLVQAGGSLRLICAASGFTFTGNAMGWYRQAPGKERELVAAITRGGSTKYADSVKGRITISRDNAMHTVYLQMNSLKPEDTAVYYCAAGVRYYRYYYWGQGTQVTVSS,high polyreactivity
21,QVQLVESGGGLVQAGGSLRLICAASGFTFYENAMGWYRQAPGKERELVATISYSGGTTYADSVKGRFTISRDNAKNTVFLQMISLKPEDTAVYYCAADKDGYTYEFDYWGQGTQVTVSS,low polyreactivity

# Source: the nanobody polyreactivity screen of Harvey et al. (2022)
